The values that follow are results of earlier work, collected in publication PMC7364852.

In general, Kd refers to the free concentration of one partner at which half of the binding sites on the other are occupied at equilibrium, for simple one-to-one binding.

This series has as its target Spike RBD (SARS-CoV-2) (UniProt P0DTC2).

SBP1 (from UniProt Q9BYF1): the Kd is 47 nM.
